Data as given in the supplement of paper PMC7877785.
± gives the uncertainty stated by the source.

Assay: self-splicing fitness, log relative to wild type (ln ratio); higher = more splicing; Tetrahymena group I intron in knt gene, E. coli kanamycin selection, DiMSum; sequences stand for … in CUCUCU…GGAGGGAAAAGUUAUCAGGCAUGCACCUGGUAGCUAGUCUUUAAACCAAUAGAUUGCAUCGGUUUAAAAGGCAAGACCGUCAAAUUGCGGGAAAGGGGUCAACAGCCGUUCAGUACCAAGUCUCAGGGGAAACUUUGAGAUGGCCUUGCAAAGGGUAUGGUAAUAAGCUGACGGACAUGGUCCUAACCACGCAGCCAAGUCCUAAGUCAACAGAUCUUCUGUUGAUAUGGAUGCAGUUCACAGACUAAAUGUCGGUCGGGGAAGAUGUAUUCUUCUCAUAAGAUAUAGUCGGACCUCUCCUUAAUGGGAGCUAGCGGAUGAAGUGAUGCAACACUGGAGCCGCUGGGAACUAAUUUGUAUGCGAAAGUAUAUUGAUUAGUUUUGGAGUACUCGUGGUCG
Summary of the method: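 Pooled colonies went to amplicon sequencing on an Illumina HiSeq 2500 after six replicate transformations. The plates were LB agar with 100 μg/mL carbenicillin, 50 μM IPTG and 0.2% rhamnose, with or without 25 μg/mL kanamycin, incubated overnight at 37°C or 30°C. The E. coli BL21(DE3) library had all eight P1ex-region intron nucleotides randomised, the intron placed in the knt kanamycin-resistance gene on pET-22b(+). DiMSum fitness is the error-weighted combination of replicate fold changes, kanamycin against none, normalised to wild type.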

AGUUAGCAAUAUUACGGGUU
self-splicing fitness (ln) (30 °C): -1.38 ± 0.11
self-splicing fitness (ln) (37 °C): -1.53 ± 0.15

AAAUAGCAAUAUUACGAAGA
self-splicing fitness (ln) (30 °C): -2.26 ± 0.26
self-splicing fitness (ln) (37 °C): -1.1 ± 0.17

UCAAAGCAAUAUUACGGGAG
self-splicing fitness (ln) (30 °C): -4.12 ± 0.3
self-splicing fitness (ln) (37 °C): -2.5 ± 0.19

GUAGAGCAAUAUUACGGACU
self-splicing fitness (ln) (30 °C): -1.4 ± 0.18
self-splicing fitness (ln) (37 °C): -0.459 ± 0.23

UCAAAGCAAUAUUACGUCGC
self-splicing fitness (ln) (30 °C): -3.36 ± 0.18
self-splicing fitness (ln) (37 °C): -2.43 ± 0.25

CCGCAGCAAUAUUACGUAUU
self-splicing fitness (ln) (30 °C): -3.84 ± 0.17
self-splicing fitness (ln) (37 °C): -2.66 ± 0.15

CCAGAGCAAUAUUACGUGAU
self-splicing fitness (ln) (30 °C): -3.93 ± 0.22
self-splicing fitness (ln) (37 °C): -2.67 ± 0.28

GAACAGCAAUAUUACGUGUA
self-splicing fitness (ln) (30 °C): -1.58 ± 0.062
self-splicing fitness (ln) (37 °C): -0.438 ± 0.069

AUGAAGCAAUAUUACGUACG
self-splicing fitness (ln) (30 °C): -0.461 ± 0.13
self-splicing fitness (ln) (37 °C): -0.446 ± 0.093

GAGGAGCAAUAUUACGGAAA
self-splicing fitness (ln) (30 °C): -3.13 ± 0.16
self-splicing fitness (ln) (37 °C): -2.94 ± 0.26

UAGAAGCAAUAUUACGCCGA
self-splicing fitness (ln) (30 °C): -1.47 ± 0.32
self-splicing fitness (ln) (37 °C): -1 ± 0.25

CCGUAGCAAUAUUACGCAGC
self-splicing fitness (ln) (30 °C): -3.54 ± 0.35
self-splicing fitness (ln) (37 °C): -3.36 ± 0.25

UCUAAGCAAUAUUACGAGCA
self-splicing fitness (ln) (30 °C): -1.38 ± 0.15
self-splicing fitness (ln) (37 °C): -0.145 ± 0.15

UGCUAGCAAUAUUACGUCUA
self-splicing fitness (ln) (30 °C): -1.21 ± 0.11
self-splicing fitness (ln) (37 °C): -0.84 ± 0.1

UCAGAGCAAUAUUACGAAAA
self-splicing fitness (ln) (37 °C): -2.13 ± 0.48

AUGGAGCAAUAUUACGGAUG
self-splicing fitness (ln) (37 °C): -2.29 ± 0.37

UAGGAGCAAUAUUACGUGCA
self-splicing fitness (ln) (30 °C): -1.88 ± 0.17
self-splicing fitness (ln) (37 °C): -1.41 ± 0.19

AAUUAGCAAUAUUACGACCC
self-splicing fitness (ln) (37 °C): 0.136 ± 0.36

GUCGAGCAAUAUUACGCUAA
self-splicing fitness (ln) (37 °C): -1.5 ± 0.2

GGUUAGCAAUAUUACGUACU
self-splicing fitness (ln) (30 °C): -1.22 ± 0.24
self-splicing fitness (ln) (37 °C): -1.27 ± 0.32

GCGUAGCAAUAUUACGAUAU
self-splicing fitness (ln) (30 °C): -0.111 ± 0.081
self-splicing fitness (ln) (37 °C): -0.357 ± 0.1

UCUUAGCAAUAUUACGCACC
self-splicing fitness (ln) (37 °C): -1.21 ± 0.37

UUCGAGCAAUAUUACGUCAA
self-splicing fitness (ln) (30 °C): -1.54 ± 0.2
self-splicing fitness (ln) (37 °C): -2.38 ± 0.37

UAUAAGCAAUAUUACGCGCA
self-splicing fitness (ln) (30 °C): -0.204 ± 0.11
self-splicing fitness (ln) (37 °C): 0.304 ± 0.14

UUCUAGCAAUAUUACGGAUU
self-splicing fitness (ln) (30 °C): -2.7 ± 0.15
self-splicing fitness (ln) (37 °C): -0.761 ± 0.14

UAGGAGCAAUAUUACGUCGU
self-splicing fitness (ln) (30 °C): -1.72 ± 0.28
self-splicing fitness (ln) (37 °C): -1.86 ± 0.35

CUAUAGCAAUAUUACGGAUA
self-splicing fitness (ln) (37 °C): -2.24 ± 0.37

AAUGAGCAAUAUUACGGUAG
self-splicing fitness (ln) (30 °C): -4.54 ± 0.32
self-splicing fitness (ln) (37 °C): -3.47 ± 0.24

UUAAAGCAAUAUUACGAAAA
self-splicing fitness (ln) (30 °C): -0.945 ± 0.057
self-splicing fitness (ln) (37 °C): -0.761 ± 0.08

GGACAGCAAUAUUACGAGAG
self-splicing fitness (ln) (30 °C): -3.81 ± 0.18
self-splicing fitness (ln) (37 °C): -2.09 ± 0.11

CCUAAGCAAUAUUACGUUAA
self-splicing fitness (ln) (30 °C): -3.22 ± 0.4
self-splicing fitness (ln) (37 °C): -2.49 ± 0.22

UACUAGCAAUAUUACGUCUA
self-splicing fitness (ln) (30 °C): -0.655 ± 0.12
self-splicing fitness (ln) (37 °C): -0.565 ± 0.11

AAGAAGCAAUAUUACGCUCA
self-splicing fitness (ln) (30 °C): -0.0265 ± 0.13
self-splicing fitness (ln) (37 °C): -0.132 ± 0.12

UGGGAGCAAUAUUACGUGUC
self-splicing fitness (ln) (30 °C): -2.08 ± 0.19
self-splicing fitness (ln) (37 °C): -2.59 ± 0.33

CGAUAGCAAUAUUACGCGUG
self-splicing fitness (ln) (30 °C): -1.89 ± 0.092
self-splicing fitness (ln) (37 °C): -0.431 ± 0.1

AUUAAGCAAUAUUACGAUAA
self-splicing fitness (ln) (30 °C): -1.48 ± 0.12
self-splicing fitness (ln) (37 °C): -0.391 ± 0.14

CCCUAGCAAUAUUACGCCUC
self-splicing fitness (ln) (30 °C): -3.29 ± 0.27
self-splicing fitness (ln) (37 °C): -3.81 ± 0.31

UUCCAGCAAUAUUACGUGAA
self-splicing fitness (ln) (30 °C): 0.179 ± 0.072
self-splicing fitness (ln) (37 °C): -0.102 ± 0.094

CAGUAGCAAUAUUACGGGGA
self-splicing fitness (ln) (30 °C): -3.9 ± 0.4
self-splicing fitness (ln) (37 °C): -2.23 ± 0.21

CCCGAGCAAUAUUACGUAUC
self-splicing fitness (ln) (30 °C): -1.94 ± 0.17
self-splicing fitness (ln) (37 °C): -3.67 ± 0.36
